Experimental data reported in patent US20240401070A1 (RUTGERS THE STATE UNIVERSITY OF NEW JERSEY, published 2024).

Molecular target: T1, recombinant human coronavirus SARS-CoV-2 Spike Glycoprotein RBD, isolate Wuhan-Hu-1 (Abcam), with C-terminal … (SARS-CoV-2, isolate Wuhan-Hu-1, UniProt P0DTC2 319-541)
T1 construct: also called SARS-COV2 spike protein; COVID-19 spike protein
Experiment: ELISA, RBD coated, anti-c-Myc-HRP detection

B1: SARS-CoV-2 VHH-cMYC-12xHis-tag (VH ab8) expressed by E. coli WK6 cells from the pHENC6-VHH plasmid (VHH)
VHH: EVQLVESGGGLVQPGGSLRLSCAASGFTFDDYAMSWVRQAPGKGLEWIGRMYNNGRTSYNPSLKSLVTISRDNSKNTLYLQMNSLRAEDTATYYCARDNLGYRPSENLYGMDVWGQGTTVTVSS
notes: also called bacteria-derived VHH antibody; pHENC6-VHH-c-Myc-12xHis-tag
binding result: binds

B2: SARS-CoV-2 VHH-cMYC-12xHis-tag (VH ab8) expressed by EXPI293F mammalian cells from pCDNA 3.4 VHH (VHH)
VHH: B1 VHH
notes: also called VHH antibodies obtained in mammalian cells; pCDNA 3.4 VHH-c-Myc-12xHis-tag
binding result: binds
